The values that follow come from publication doi:10.1101/864769.

In general, Kd refers to the equilibrium constant for the complex coming apart. The low end stands for higher affinity, the high end for lower affinity.

In the assay the target is CP-capped actin filament barbed ends (not stated | chicken) (UniProt P60709). Nature of the assay: single-filament uncapping assay.

Consider “mouse twinfilin-1 (from UniProt Q91YR1 1-350) (natural protein)”, for which the Kd is 300 nM.
